Test results: doi:10.1101/2021.02.09.429966 (bioRxiv, 2021)

Target: Clumping factor A (ClfA) on S. aureus LACΔspaΔsbi (Staphylococcus aureus USA300 LAC Δspa, …, UniProt A0A0H2XG16)
Assay: flow cytometry on cells

B1: T1-2-IgG1 (antibody, V domains shown)
VH: QVQLKESGPGLVAPSQSLSITCAISGFSLSRYSVHWVRQPPGKGLEWLGMIWGGGNTDYNSALKSRLSISKDNSKSQVFLKMNSLQTDDTAMYYCARKGEFYYGYDGFVYWGQGTLVTVSA
VL: NIMMTQSPSSLAVSAGEKVTMSCKSSQSVLYSSNQKNYLAWYQQKPGQSPKLLIYWASTRESGVPDRFTGSGSGTDFTLTISSVQAEDLAVYYCHQYLSSYTFGGGTKLEIK
  binding result: binds
